Drawing on patent US8618251, this text covers Kd for 1 substance.

For experiment [1], the target named is soluble hFcγRIIA^131H (human) (UniProt P12318). Kind of experiment: SPR (Biacore T100), steady-state affinity; antibody immobilised on CM5 chip, soluble receptor injected. In general terms: Surface plasmon resonance follows binding to a sensor surface in real time, without labels.
Experiment [2] addresses soluble hFcγRIIA^131R (human) (UniProt P12318). The experiment is described as above.
A further experiment addresses C1q (Calbiochem) (UniProt P02745). Briefly: SPR (Biacore T100), steady-state affinity; antibody immobilised on CM5 chip, C1q injected.
Experiment [3] deals with soluble hFcγRIIIA FV (human) (UniProt P08637). Kind of experiment: SPR (Biacore T100), steady-state affinity; antibody immobilised on CM5 chip, soluble receptor injected; column head hRIIIA158F, whose values for IEAL, ALEV and LLLFET are those of the hRIIIA FV column of Table 1.
soluble hFcγRIIIA FV (human), sequence (P08637 17-208 F176V): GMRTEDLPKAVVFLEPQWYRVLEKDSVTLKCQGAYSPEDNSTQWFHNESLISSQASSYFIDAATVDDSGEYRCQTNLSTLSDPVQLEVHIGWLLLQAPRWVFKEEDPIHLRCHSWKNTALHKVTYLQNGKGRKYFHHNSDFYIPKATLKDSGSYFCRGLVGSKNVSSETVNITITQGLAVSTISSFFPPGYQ

soluble hFcγRIIA^131H (human), sequence (P12318 34-217): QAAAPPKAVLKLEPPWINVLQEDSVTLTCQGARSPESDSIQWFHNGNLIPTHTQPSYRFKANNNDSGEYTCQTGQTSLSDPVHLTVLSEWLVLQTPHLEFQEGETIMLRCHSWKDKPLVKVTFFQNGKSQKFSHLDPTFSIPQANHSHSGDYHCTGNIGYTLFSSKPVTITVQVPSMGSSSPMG
soluble hFcγRIIA^131R (human), sequence (P12318 34-217 H167R): as the sequence (P12318 34-217) above, with H134R counted along it
C1q (Calbiochem), sequence (P02745 23-245 limits assumed, chain 1 of 3): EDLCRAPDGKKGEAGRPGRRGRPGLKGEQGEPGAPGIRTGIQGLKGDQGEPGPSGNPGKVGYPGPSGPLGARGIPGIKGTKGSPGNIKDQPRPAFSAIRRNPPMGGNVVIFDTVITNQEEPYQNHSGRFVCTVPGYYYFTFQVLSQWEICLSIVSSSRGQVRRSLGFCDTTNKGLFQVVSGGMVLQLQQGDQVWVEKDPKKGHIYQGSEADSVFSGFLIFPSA
C1q (Calbiochem), sequence (P02746 28-253 limits assumed, chain 2 of 3, further chain): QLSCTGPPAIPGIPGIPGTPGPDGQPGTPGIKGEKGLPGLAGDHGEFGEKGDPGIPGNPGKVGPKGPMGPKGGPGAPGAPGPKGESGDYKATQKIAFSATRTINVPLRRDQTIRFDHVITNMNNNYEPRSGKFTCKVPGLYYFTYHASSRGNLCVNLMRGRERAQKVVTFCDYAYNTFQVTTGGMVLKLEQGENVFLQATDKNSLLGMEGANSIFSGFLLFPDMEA
C1q (Calbiochem), sequence (P02747 29-245 limits assumed, chain 3 of 3, further chain): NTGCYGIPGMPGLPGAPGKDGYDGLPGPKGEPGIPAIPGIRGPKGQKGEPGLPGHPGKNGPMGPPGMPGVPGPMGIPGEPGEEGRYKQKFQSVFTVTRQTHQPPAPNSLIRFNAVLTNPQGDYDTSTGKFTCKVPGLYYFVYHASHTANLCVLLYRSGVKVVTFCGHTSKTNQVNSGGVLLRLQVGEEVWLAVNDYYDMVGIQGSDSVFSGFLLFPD

One may read the Kd as the constant that tells how readily two partners part at equilibrium. Regarding “4-4-20 hIgG1 with unmodified human IgG1 Fc (antibody)”, the Kd in experiment [1] is 4.3 µM; in experiment [2], 4.8 µM; in the experiment with C1q (Calbiochem) it was 0.29 µM; in experiment [3] it was 3.5 µM.
